Measured values published in patent US20050080013A1 (Pfizer, published 2005).
Non-standard residues stand in square brackets, D forms with d. Primed or numbered codes have the meaning given here. No end group written: not given here. Orn = NCCC[C@H](N)C(=O)O; Nal″ = naphthylalanine; Aib = CC(C)(N)C(=O)O

T1: lecithin:cholesterol acyltransferase (LCAT), purified from human plasma (human, UniProt P04180 25-440)
T1 sequence (looked up): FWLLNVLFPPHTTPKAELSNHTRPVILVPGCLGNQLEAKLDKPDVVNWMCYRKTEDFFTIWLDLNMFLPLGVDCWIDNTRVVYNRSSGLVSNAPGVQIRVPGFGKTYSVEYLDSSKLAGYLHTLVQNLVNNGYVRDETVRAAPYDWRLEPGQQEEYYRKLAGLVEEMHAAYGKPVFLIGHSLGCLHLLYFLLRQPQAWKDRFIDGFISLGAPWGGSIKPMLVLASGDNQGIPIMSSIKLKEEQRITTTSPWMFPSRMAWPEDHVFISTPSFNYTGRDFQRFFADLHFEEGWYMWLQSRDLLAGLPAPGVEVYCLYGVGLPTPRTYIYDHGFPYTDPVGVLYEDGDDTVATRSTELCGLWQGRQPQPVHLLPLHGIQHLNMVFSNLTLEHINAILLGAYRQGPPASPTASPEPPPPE


biological target: T1, lecithin:cholesterol acyltransferase …; assay: cell-based or functional assay

Binder | ACTIVITY (%) LCAT [%]
PLLELFENLLERLLDALQKKLK [peptide 150] | 57
[dP][dV][dL][dE][dL][dF][dE][dN][dL][dL][dE][dR][dL][dL][dD][dA][dL][dQ][dK][dK][dL][dK] [peptide 174] | 13
PVLDEFREKLNEELEA[Aib]KQKLK [peptide 119] | 0
PVLELFENLLERLFDALQKKLK [peptide 147] | 76
GVLDLFRELLNEGLEALKQKLK [peptide 13] | 67
PVLDLFRELLNELLEA[Nal″]KQKLK [peptide 10] | 79
PVLELFLNLLERLLDALQKKLK [peptide 156] | 35
PVLDEFRELLNEELEALKQKLK [peptide 103] | 1
PVLELFENLLEKLLDALQKKLK [peptide 169] | 17
PVLDEFREKLWE[Aib]WEALKQKLK [peptide 111] | 0
PVLELFENLGERLLDALQKKLK [peptide 151] | 55
PVLELFENWLERLLDALQKKLK [peptide 162] | 27
PVLDLFREKLNEELEALKQKLK [peptide 106] | 0
PVLELFENLLERLLEALQKKLK [peptide 161] | 27
PVLELFENLLERGLDALQKKLK [peptide 154] | 39
PVLDLFRWLLNE[Aib]LEALKQKLK [peptide 108] | 0
PVLELFENLLERLLDALQKKLK [peptide 146] | 86
PELDEFREKLNE[Aib]LEALKQKLK [peptide 117] | 0
PVLDLFDNLLDRLLDLLNKKLK [peptide 173] | 15
PVLDLFRELLNELLEAGKQKLK [peptide 12] | 70
PVLELWENLLERLLDALQKKLK [peptide 176] | 11
PLLNELLEALKQKLK [peptide 104] | 1
PVLEFFENLLERLLDALQKKLK [peptide 157] | 30
PVLDLFRELLNELLEALXQXLX (Orn (O) at 18, 20, 22) [peptide 14] | 61
PVLDEFREKLNE[Aib][Aib]EALKQKLK [peptide 110] | 0
PVLELFENLLERLLDLLQKKLK [peptide 165] | 23
AVLELFENLLERLLDALQKKLK [peptide 153] | 49

More lines, now with the values ahead:

ACTIVITY (%) LCAT [%] | Binder
0 | PVLDEFREKLNEELEALWQKLK [peptide 121]
72 | PVLDLFKELLQELLEALKQKLK [peptide 11]
0 | PVLDEFREKLNE[Aib]MEALKQKLK [peptide 114]
50 | PVFELFENLLERLLDALQKKLK [peptide 152]
0 | PVLDEFREKLNEELEWLKQKLK [peptide 122]
47 | PVLDLFRELLNELLELLKQKLK [peptide 127]
17 | PVLELFEQLLEKLLDALQKKLK [peptide 168]
30 | PVLELFLNLLERLLDWLQKKLK [peptide 158]
1 | PAADAFREAANEAAEAAKQKAK [peptide 105]
0 | PVLDEFREKLNE[Aib]LEALEQKLK [peptide 118]
0 | PHLDEFREKLNE[Aib]LEALKQKLK [peptide 116]
16 | PVLELFENLLEKLLDLLQKKLK [peptide 171]
16 | PVLELFLNLLERLGDALQKKLK [peptide 172]
0 | PVLDEFREKLNERLEALKQKLK [peptide 109]
17 | PVLELFENLLE[Orn]LLDALQ[Orn][Orn]L[Orn] [peptide 170]
18 | PVLELFENGLERLLDALQKKLK [peptide 167]
28 | PVLELFENLLERLLDWLQKKLK [peptide 160]

ACTIVITY (%) LCAT [%] | Binder
0 | PVLDEFREKLNEELE[Aib]LKQKLK [peptide 120]
0 | PVLDEFREKLNE[Aib]SEALKQKLK [peptide 112]
26 | PVLELFENLLERLWDALQKKLK [peptide 163]
13 | PVLELFENLLERLLELLNKKLK [peptide 175]
0 | KLKQKLAELLENLLERFLDLVP (all D-amino acids (lower case)) [peptide 107]
38 | PVLELFLNLWERLLDALQKKLK [peptide 155]
0 | PKLDEFREKLNE[Aib]LEALKQKLK [peptide 115]
28 | PVLDLFENLLERLLDALQKKLK [peptide 159]
24 | PVLELFENLLERLLDAWQKKLK [peptide 164]
100 | GVLELFENLLERLLDALQKKLK [peptide 145]
75 | PVLELFENLLERLGDALQKKLK [peptide 148]
111 | [dP]VLELFENLLERLLDALQKKLK [peptide 144]
22 | PVLELFLNLLEKLLDALQKKLK [peptide 166]
60 | PVLDLFRELWNELLEALKQKLK [peptide 15]
0 | PVLDEFREKLNEPLEALKQKLK [peptide 113]
120 | PVLDLFRELLNELLE[Nal″]LKQKLK [peptide 1]
63 | PVLELFENLWERLLDALQKKLK [peptide 149]
